{"source": "patent EP0999853B1", "target": "recombinant preparation of soluble MAC-1 (UniProt P11215)", "test": "MAC-1 capture ELISA over total F(ab')2 ELISA; 5 weeks of storage, all formulations F1-F5", "data": [{"substance": "recombinant humanized anti-CD18 antibody (rhuMAb CD18)", "values": [{"measurement": "loss of specific activity at 40°C relative to -70°C", "value": "10 to 15", "unit": "%"}]}]}
